Measured values as given in article PMC6149855, “Improving the Catalytic Property of the Glycoside Hydrolase LXYL-P1–2 by Directed Evolution” (Molecules : A Journal of Synthetic Chemistry and Natural …, 2017).

What follows are substances tested on [H][C@]12[C@H](OC(=O)c3ccccc3)[C@]3(O)C[C@H](OC(=O)[C@H](O)[C@@H](NC(=O)c4ccccc4)c4ccccc4)C(C)=C([C@@H](O)C(=O)[C@]1(C)[C@@H](O[C@@H]1OC[C@@H](O)[C@H](O)[C@H]1O)C[C@@]1([H])OC[C@@]21OC(C)=O)C3(C)C (assay: HPLC of 10-deacetyltaxol formation, nonlinear Michaelis–Menten fit). Settings: XDT 0.039–5.0 mM; other conditions as described previously.
Assay type: biochemical, Lentinula edodes
Source text: HPLC of 10-deacetyltaxol formation, nonlinear Michaelis–Menten fit on LXYL-P1–2
With LXYL-P1–2 (Lentinula edodes; T368E) the Km was 0.16 (±0.01) mmol L^−1, the Vmax was 3.84 µM/min and the kcat was 2.3 ± 0.03 s⁻¹. It also gave a kcat/Km of 14200 ± 810 M⁻¹ s⁻¹. With LXYL-P1–2 (Lentinula edodes) the Km was 0.51 (±0.01) mmol L^−1, the Vmax was 8.16 µM/min and the kcat was 4.89 ± 0.1 s⁻¹. The kcat/Km was 9670 ± 100 M⁻¹ s⁻¹. With LXYL-P1–2 (Lentinula edodes; S91D) the Km was 0.17 (±0.01) mmol L^−1, the Vmax was 3.15 µM/min and the kcat was 1.89 ± 0.04 s⁻¹. It also gave a kcat/Km of 11300 ± 390 M⁻¹ s⁻¹.
